Experimental data taken from patent US20170073659.

Biological target: GFP-KRS

B1: caspase-8 (protein)
chain: MDFSRNLYDIGEQLDSEDLASLKFLSLDYIPQRKQEPIKDALMLFQRLQEKRMLEESNLSFLKELLFRINRLDLLITYLNTRKEEMERELQTPGRAQISAYRVMLYQISEEVSRSELRSFKFLLQEEISKCKLDDDMNLLDIFIEMEKRVILGEGKLDILKRVCAQINKSLLKIINDYEEFSKERSSSLEGSPDEFSNGEELCGVMTISDSPREQDSESQTLDKVYQMKSKPRGYCLIINNHNFAKAREKVPKLHSIRDRNGTHLDAGALTTTFEELHFEIKPHDDCTVEQIYEILKIYQLMDHSNMDCFICCILSHGDKGIIYGTDGQEAPIYELTSQFTGLKCPSLAGKPKVFFIQACQGDNYQKGIPVETDSEEQPYLEMDLSSPQTRYIPDEADFLLGMATVNNCVSYRNPAEGTWYIQSLCQSLRERCPRGDDILTILTEVNYEVSNKDDKKNMGKQMPQPTFTLRKKLVFPSD
- amount of KRS cleaved after caspase-8 overexpression (western blot with anti-GFP antibody): the amount of KRS cleaved was increased with the increasing amount of caspase-8
